# Experimental data taken from publication PMC11098083.
# Target: GST-Pol32 (Saccharomyces cerevisiae (budding …, UniProt P47110 1-350))
# Assay: EMSA
# Chain of GST-Pol32 (Saccharomyces cerevisiae (P47110 whole entry): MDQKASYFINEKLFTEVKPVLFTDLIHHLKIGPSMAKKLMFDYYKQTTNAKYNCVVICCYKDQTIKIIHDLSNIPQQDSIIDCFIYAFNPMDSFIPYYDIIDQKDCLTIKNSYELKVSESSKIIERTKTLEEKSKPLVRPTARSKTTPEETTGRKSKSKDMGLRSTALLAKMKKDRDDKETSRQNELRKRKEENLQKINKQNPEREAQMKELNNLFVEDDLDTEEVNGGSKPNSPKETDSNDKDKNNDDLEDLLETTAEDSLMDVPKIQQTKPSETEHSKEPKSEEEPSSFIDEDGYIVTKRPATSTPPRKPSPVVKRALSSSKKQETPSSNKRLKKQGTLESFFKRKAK
binder,measurement,value
58bp DNA (dsDNA) DNA 1: ATACATTTTATGACTGGAAACTTTTTTGTACAACACTCCAATAAACATTTTGATTTTA DNA 2: TAAAATCAAAATGTTTATTGGAGTGTTGTACAAAAAAGTTTCCAGTCATAAAATGTAT,binding result,binds
